Paper PMC11076338, “ACRE, a class of AP2/ERF transcription factors, activates the expression of sweet potato ß-amylase and sporamin genes through the sugar-responsible element CMSRE-1”

Tests used:
Assay in all cases: EMSA; EMSA: 15 mM HEPES-KOH pH 7.5, 25 mM KCl, 0.25 mM EDTA, 6% glycerol, 2 mM DTT, 20 fmol probe (Methods print 20 fg), 0.2-0.8 ug protein, room temperature 30 min
Details in all cases: protein: recombinant; tags: MBP (N-terminal); label: biotin as probe
ACRE1 = target: T1, ACRE1 (Arabidopsis thaliana, UniProt Q9C591 1-216)
T1 sequence: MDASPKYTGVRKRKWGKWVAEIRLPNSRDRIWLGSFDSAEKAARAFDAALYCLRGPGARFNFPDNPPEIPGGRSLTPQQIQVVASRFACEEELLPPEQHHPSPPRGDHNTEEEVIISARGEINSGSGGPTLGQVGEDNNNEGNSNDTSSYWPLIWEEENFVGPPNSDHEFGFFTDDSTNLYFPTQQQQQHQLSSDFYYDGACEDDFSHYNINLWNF

ACRE2 (ERF017) = target: T2, ACRE2 (ERF017) (Arabidopsis thaliana, UniProt Q84QC2 1-185)
T2 sequence: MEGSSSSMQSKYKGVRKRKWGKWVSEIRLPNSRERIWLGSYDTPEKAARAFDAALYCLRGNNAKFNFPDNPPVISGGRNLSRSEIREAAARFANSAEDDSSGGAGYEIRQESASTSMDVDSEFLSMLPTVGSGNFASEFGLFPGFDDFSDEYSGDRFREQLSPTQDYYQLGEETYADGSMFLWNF

ORA47/ACRE3 (ERF018) = target: T3, ORA47/ACRE3 (ERF018) (Arabidopsis thaliana, UniProt Q9S7L5 1-195)
T3 sequence: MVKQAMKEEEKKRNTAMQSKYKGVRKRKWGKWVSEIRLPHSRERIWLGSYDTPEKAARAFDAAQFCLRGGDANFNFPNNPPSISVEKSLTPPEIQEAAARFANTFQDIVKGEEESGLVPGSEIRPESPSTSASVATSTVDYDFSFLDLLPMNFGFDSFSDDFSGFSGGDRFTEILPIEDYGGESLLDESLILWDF

Measured: binding result

B1: BA (dsDNA)
DNA 1: CTAGTCTTAATGGACGGTATTGT
DNA 2: ACAATACCGTCCATTAAGACTAG
binds: all assays above

B2: DRE (dsDNA)
DNA 1: TCGAGTAAATCATGTCGGTTGAAAG
DNA 2: CTTTCAACCGACATGATTTACTCGA
binds: all assays above

B3: SPO (dsDNA)
DNA 1: CTAGTACACTTGGACGGCCACAT
DNA 2: ATGTGGCCGTCCAAGTGTACTAG
binds: all assays above
